Test results reported in patent US6362319B1, “Glial cell line-derived neurotrophic factor” (Amgen Inc., priority 1991, dated 2002).

Assays:
[1] = test system: GABA neurons in mesencephalic cultures; assay: 14C-GABA uptake in mesencephalic cultures; type: cell-based, rat; conditions: cultures grown with GDNF for 16 days
Method: FIGS. 21A-C depicts the specificity of GDNF to dopaminergic neurons. Cultures were established as described in Example 1B. GDNF was added on the day of plating. A. ^3H-DA uptake was measured after seven days in vitro. B. ^14C-GABA uptake was measured after eight days in vitro. Cells were incubated and treated as for ^3H-DA uptake, except the uptake buffer consists of Kreb-Ringer's phosphate buffer, pH 7.4, containing 5.6 mM glucose, 1.3 mM EDTA, 10 μM amino-oxyacetic acid (to prevent GABA breakdown), 2 mM β-alanine (to inhibit glia uptake of GABA) and 0.1 μM ^14C-GABA (150 mCi/mmole, New England Nuclear, Boston, Mass.). In the presence of 1 mM diaminobutyric acid (DABA), a potent inhibitor of ^14C-GABA uptake into GABA neurons, the ^14C-uptake was reduced to 10%. Control values in the presence of DABA were subtracted from experimental values.
H^3-dopamine (^3H-DA) and ^14C-GABA uptake were measured in sister cultures of mesencephalic cells which had been grown with various concentrations of GDNF for 15 and 16 days, respectively. As described above, GDNF enhanced the ^3H-DA uptake capacity of mesencephalic dopamine neurons ˜150% over control without GDNF (FIG. 21A). […] This is also illustrated by the increase in the ^3H-DA/^14C-GABA uptake ratio calculated (FIG. 21C).

[2] = test system: TH+ dopamine neurons in mesencephalic cultures; assay: Tyrosine hydroxylase (TH) immunoreactivity in mesencephalic cultures; type: cell-based, rat; conditions: added at day of plating, examined eight days later
Method: FIGS. 20A-B depicts the ability of GDNF to stimulate dopamine uptake and tyrosine hydroxylase (TH) immunostaining in dopaminergic neurons. Cultures were established as described in Example 1B. […] B. […] Primary antibody binding was visualized using a Vectastain ABC kit (Vector Labs, Burlingame, Calif.).
Culture conditions: Dissociated mesencephalic cell cultures were prepared as previously described (Friedman and Mytilineou 1987 Neurosci. Lett. 79:65-72), with minor modifications. Briefly, rostral mesencephalic tegmentum from brains of Sprague-Dawley rat embryos, at the 16th day of gestation, were dissected under the microscope in sterile conditions, collected in Ca^2+- and Mg^2+-free Dulbecco's phosphate buffered saline (Gibco, Gaithersburg, Md.) and dissociated mechanically by mild trituration. The cells were plated in 100 μl per well onto 16-mm diameter tissue culture wells (Falcon, Lincoln Park, N.J., 24-well plate) containing 400 μl medium to give a density of 2.5-3.5×10^5 cells per well. The culture wells had been previously exposed to 0.1 mg/ml solution of poly L-ornithine in 10 mM sodium borate, pH 8.4, for 3 hours at 37° C., washed 3 times in milli-Q H2O and once in Earle's balanced salt solution (Gibco). […]

[3] = test system: serotonergic neurons in rat embryo mesencephalic cultures; assay: 3H-serotonin uptake in mesencephalic cultures; type: cell-based; conditions: uptake after 6 days in vitro
Method: FIGS. 24A-B depicts the specificity of GDNF to dopaminergic neurons. Cultures were prepared as described in Example 1B. GDNF was added on the day of plating, and uptake was measured after 6 days in vitro. A depicts dopamine uptake and B depicts serotonin uptake.
In the presence of 10 μM citalpram (obtained from Dr. C. Mytilineou, Mount Sinai School of Medicine), a known potent inhibitor of serotonin uptake in serotonin neurons, the ^3H-serotonin uptake was reduced to 15%.

[4] = test system: nigral dopaminergic nerve cells; assay: Experimental Parkinsonism in monkeys treated with MPTP; type: in vivo, monkeys (Cebus apella); conditions: intraventricular minipump, 14 days, MPTP 0.6 mg/kg
Method: A stainless-steel cannula may be implanted into the right lateral ventricle and connected to a subcutaneously-implanted osmotic minipump (Alzet 2002). The minipump contains GDNF at various concentrations or its diluent as a negative control. The pump delivers 0.5 μl/h for 14 days. Two days after the cannula-pump implant, monkeys (Cebus apella) receive an injection of 0.6 mg/kg of MPTP into the right carotid artery. Six weeks after the initial implant, animals are perfused with saline and the brain rapidly removed. The brain is dissected on ice and punches of tissue are removed from the caudate nucleus and putamen. The substantia nigra is placed in fixative. The caudate-putamen tissue is analyzed by HPLC-EC for dopamine, the substantia nigra is processed for tyrosine hydroxylase (TH) immunoreactivity.
Degeneration of nigral dopaminergic nerve cells and their axonal projections to the caudate/putamen cause experimental Parkinsonism in this monkey model. There are several experimental indications that GDNF may prevent or reduce the severity of this neuronal degeneration. […] This indicates sparing by GDNF of nigral dopaminergic nerve cells from the toxic effects of MPTP. […] This indicates sparing by GDNF of the axonal projections of the nigral dopaminergic neurons from the toxic effects of MPTP. […]

[5] = test system: dopaminergic neurons in rat embryo (E16) mesencephalic cell cultures; assay: Bioassay for dopaminergic neurotrophic activity: 3H-dopamine uptake in dissociated mesencephalic cell cultures; type: cell-based; conditions: cultures grown with GDNF for 15 days

B1: glial cell line-derived neurotrophic factor (protein)
chain: SNMPEDYPDQFDDVMDFIQATIKRLKRSPDKQMAVLPRRERNRQAAAANPENSRGKGRRGQRGKNRGCVLTAIHLNVTDLGLGYETKEELIFRYCSGSCDAAETTYDKILKNLSRNRRLVTDKVGQACCRPIAF
notes: dopaminergic neurotrophic protein purified from serum-free conditioned medium of rat B49 glioblastoma cells; disulfide-bonded dimer
14C-GABA uptake higher than control [1]: ~20% | number of TH+ neurons over controls without GDNF [2]: tenfold higher | effect on serotonin uptake [3]: fails to increase the uptake of serontonin | loss of dopamine content in the caudate/putamen [4]: may also prevent the loss of dopamine content in the caudate/putamen | 3H-DA uptake capacity over control without GDNF [5]: ~150%
